From US20060141529

Columns and labels:
[1] = test system: Cortactin (endogenous, immunoprecipitated from PDGF-stimulated cells)
[2] = target: CRK (positive control substrate printed on the Human ProtoArray microarray) (UniProt P46108)
[3] = target: Shp1 (on Human ProtoArray microarray) (UniProt P29350)
Sequence of Shp1 (on Human ProtoArray microarray) (P29350 whole entry): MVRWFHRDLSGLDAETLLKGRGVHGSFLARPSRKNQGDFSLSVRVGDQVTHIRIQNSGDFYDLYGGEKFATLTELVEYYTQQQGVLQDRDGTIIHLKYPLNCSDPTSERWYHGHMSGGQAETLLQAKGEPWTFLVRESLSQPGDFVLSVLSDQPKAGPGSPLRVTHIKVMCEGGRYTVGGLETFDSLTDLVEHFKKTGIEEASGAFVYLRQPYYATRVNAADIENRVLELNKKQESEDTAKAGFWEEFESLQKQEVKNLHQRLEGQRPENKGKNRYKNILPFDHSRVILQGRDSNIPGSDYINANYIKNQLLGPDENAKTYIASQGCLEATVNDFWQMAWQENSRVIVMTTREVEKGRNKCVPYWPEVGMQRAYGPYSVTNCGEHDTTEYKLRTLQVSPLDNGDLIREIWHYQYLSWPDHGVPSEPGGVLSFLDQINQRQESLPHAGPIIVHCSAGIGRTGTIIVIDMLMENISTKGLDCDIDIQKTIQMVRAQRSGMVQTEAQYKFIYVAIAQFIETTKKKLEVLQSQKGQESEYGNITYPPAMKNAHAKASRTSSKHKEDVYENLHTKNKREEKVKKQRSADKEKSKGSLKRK

Sequence of CRK (positive control substrate printed on the Human ProtoArray microarray) (P46108 whole entry): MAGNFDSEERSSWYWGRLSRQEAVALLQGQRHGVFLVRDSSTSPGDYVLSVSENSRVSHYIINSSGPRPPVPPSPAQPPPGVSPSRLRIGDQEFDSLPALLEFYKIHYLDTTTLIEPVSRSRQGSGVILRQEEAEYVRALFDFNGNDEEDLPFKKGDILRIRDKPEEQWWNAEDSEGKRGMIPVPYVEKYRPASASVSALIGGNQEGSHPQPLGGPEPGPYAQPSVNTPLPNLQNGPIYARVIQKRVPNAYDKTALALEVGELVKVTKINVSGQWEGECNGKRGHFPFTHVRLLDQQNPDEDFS

| Substance | PDGF-stimulated tyrosine phosphorylation of Cortactin (immunoprecipitation and anti-phosphotyrosine immunoblot) [1] | phosphorylation on Human ProtoArray microarray (radiolabeled ATP) [2] | phosphorylation on Human ProtoArray microarray [3] |
| --- | --- | --- | --- |
| ABL (endogenous, in wild-type cell line) | PDGF stimulates phosphorylation of Cortactin 3-fold in wild type cells but not in abl-/-, arg-/-, and abl-/-arg-/- | – | – |
| ARG (endogenous, in wild-type cell line) | PDGF stimulates phosphorylation of Cortactin 3-fold in wild type cells but not in abl-/-, arg-/-, and abl-/-arg-/- | – | – |
| ARG kinase (protein tyrosine kinase ARG used to probe the Human ProtoArray microarrays) | – | This kinase phosphorylated the control substrate CRK in every subarray | one of the proteins proven to be a substrate for ARG on a Human ProtoArray microarray, Shp1 |
